The source of these data is patent US20070116702A1, “Survival promoting NCAM binding and MCAM ligand binding compounds” (priority 2001, published 2007).

The labels stand for the following.
B1: NCAM(20-208) first mutant: Glu-30, Glu-35 and Lys-37 substituted with Ala (receptor, UniProt P13596 20-208, looked up)
chain: LQVDIVPSQGAISVGASAFFLCQVAGDAKDKDISWFSPNGEKLSPNQQRISVVWNDDDSSTLTIYNANIDDAGIYKCVVTAEDGTQSEATVNVKIFQKLMFKNAPTPQEFKEGEDAVIVCDVVSSLPPTIIWKHKGRDVILKKDVRFIVLSNNYLQIRGIKKTDEGTYRCEGRILARGEINFKDIQVIV
B2: NCAM(20-208) second mutant: Arg-192, Arg-196 and Glu-198 substituted with Ala (receptor, UniProt P13596 20-208, looked up)
chain: LQVDIVPSQGEISVGESKFFLCQVAGDAKDKDISWFSPNGEKLSPNQQRISVVWNDDDSSTLTIYNANIDDAGIYKCVVTAEDGTQSEATVNVKIFQKLMFKNAPTPQEFKEGEDAVIVCDVVSSLPPTIIWKHKGRDVILKKDVRFIVLSNNYLQIRGIKKTDEGTYRCEGAILAAGAINFKDIQVIV
B3: NCAM(20-208) third mutant: Glu-30, Glu-35, Lys-37, Arg-192, Arg-196 and Glu-198 substituted with Ala (receptor, UniProt P13596 20-208, looked up)
chain: LQVDIVPSQGAISVGASAFFLCQVAGDAKDKDISWFSPNGEKLSPNQQRISVVWNDDDSSTLTIYNANIDDAGIYKCVVTAEDGTQSEATVNVKIFQKLMFKNAPTPQEFKEGEDAVIVCDVVSSLPPTIIWKHKGRDVILKKDVRFIVLSNNYLQIRGIKKTDEGTYRCEGAILAAGAINFKDIQVIV
B4: Ig1: Recombinant Ig1 domain of rat NCAM produced in Pichia pastoris (protein)
chain: LQVDIVPSQGEISVGESKFFLCQVAGDAKDKDISWFSPNGEKLSPNQQRISVVWNDDDSSTLTIYNANIDDAGIYKCVVTAEDGTQSEATVNVKIFQ
B5: C3d, tetrameric dendrimer of the C3 peptide (peptide)
peptide: ASKKPKRNIKA
modifications: also: tetrameric dendrimer: four monomers coupled to a backbone of three lysines, synthesised on Rink amide linker
notes: Immobilised on a CM5 sensor chip in the BIAlite experiment; also called dendrimer peptide C3d
B6: D3d, tetrameric dendrimer of the D3 peptide (peptide)
peptide: AKKERQRKDTQ
modifications: also: tetrameric dendrimer: four monomers coupled to a backbone of three lysines, synthesised on Rink amide linker
notes: Immobilised on a CM5 sensor chip in the BIAlite experiment; also called dendrimer peptide D3d
B7: D4d, tetrameric dendrimer of the D4 peptide (peptide)
peptide: ARALNWGAKPK
modifications: also: tetrameric dendrimer: four monomers coupled to a backbone of three lysines, synthesised on Rink amide linker
notes: Immobilised on a CM5 sensor chip in the BIAlite experiment; also called dendrimer peptide D4d

No end group written: not given here.

One data set deals with the molecule itself. As to the kind of experiment: gel filtration chromatography, homophilic dimer formation.
Conditions: not given
For B1, the binding result is “no binding”.
For the molecule B2, the binding result is recorded as “no binding”.
The same measure, in the same setting: to B3 belongs “no binding”.

The next data set concerns Hippocampal cells. As to the kind of experiment: Aggregate cell cultures of hippocampal cells (aggregates counted after 24 h). Conditions: ligand present during the aggregation of cells; quantified 24 h after seeding. Type of data set: cell-based, rat. How it is done:
A variety of suitable fragments and variants of NCAM has been discussed above. To be able to identify candidate ligands capable of stimulating NCAM function, where the NCAM function means the function of the NCAM molecule, the inventors have established a simple cell culture system (aggregate cell cultures) that permits a quantitative evaluation of the effect of various ligands. Hippocampal cells are provided from rat embryos. The cells are grown in a defined medium and dissociated cells are seeded in microtiter plates. After 24 h, the, amount of aggregates are counted. Compounds to be tested are added to the cell suspension immediately before seeding of the cells in micro-wells. When NCAM Ig1 binding ligands are present during the aggregation of cells, smaller, but more numerous cell aggregates are seen when quantified 24 h after seeding of the cells. The inhibiting effect of the ligands results in a blockage of the formation of large aggregates from many small aggregates as the adhesion, properties of NCAM are blocked. Thus, small but more numerous cell aggregates are seen in the presence of active ligands.
As for “ARALNWGAKPK (listed as Homo sapiens) [D4]”, the “inhibition of aggregation of hippocampal cells” value (“inhibition” for short) was “inhibited aggregation”.
For the molecule “GRILARGEINFK (listed as Homo sapiens) [Ig2-p]”, the “inhibition” value was “inhibited aggregation”.
“AKKERQRKDTQ (listed as Homo sapiens) [D3]”: the “inhibition” value was “inhibited aggregation”.
The same measure, in the same setting: the entry for “GEISVGESKFFL (listed as Homo sapiens) [Ig1-p]” is “inhibited aggregation”; for B4 it is “inhibited aggregation”.

For a further data set, the target named is T1, recombinant NCAM Ig1 domain produced in Pichia pastoris (Ig1 PP) (rat, UniProt P13596 20-116, limits assumed).
T1 construct: domain: Ig1; unlabelled analyte in the BIAlite experiment; also called NCAM Ig1-PP
In words: one-bead one-peptide library stained with biotinylated NCAM Ig1.
Conditions: not given
How it is done: The synthesis of the resin-bound one-bead one-peptide library was performed using the portioning, mix procedure (Furka et al., 1991). Polyethylene syringes served as reaction vessels throughout the synthesis and the final TFA-deprotection. TentaGel resin (Rapp Polymere, Tübingen, Germany) was divided into 18 aliquots and the protein L-amino acids except cysteine and histidine were used. Side-chains were protected with the following protecting groups: Asp(tBu), Glu(tBu), Tyr(tBu), Ser(tBu), Thr(tBu), Asn(trt), Gln(trt), Lys(Boc), Trp(Boc), Arg(pmc). Fmoc-protected amino acids (5 eq; Milligen or Novabiochem) were coupled overnight using 5eq DIC and 5eq HOBt. Removal of the Fmoc group was accomplished with 25% piperidine in DMF for 20 min. The side chain protecting groups were removed with […], 5% anisole, 5% H₂O, 5% EDT, 2.5% thioanisole at mom temperature for 2.5 h followed by washing with tetrahydrofuran and 1% HOAc and the resin was subsequently lyophilised. Screenings were done by incubating 2 ml resin (equivalent to ca. 10⁶ beads) with biotinylated receptor in Tris/HCl buffer (Tris/HCl 0.025 M, pH 7.2, 0.25 M NaCl, 0.1 % (w/v) Tween 20) containing 0.1% Gelatin (Sigma) for 60 min. Subsequently the resin was washed in Tris/HCl buffer and incubated with avidin-alkaline phosphatase (diluted 1:20000) for 30 min. The substrates BCIP/NBT (Sigma) were added as described by Lam et al. (1992) and stained beads were removed for micro sequencing. The library was screened with the receptor NCAM Ig1-PP (10 mg/ml).
As to AQMGRQSIDRN [SEQ ID NO 18], the binding result is “binds”.
For AEGGKKKKMRA [SEQ ID NO 19], the binding result was “binds”.
On the same count and under the same terms, the entry for AGSAVKLKKKA [SEQ ID NO 4] is “binds”; for AKKERQRKDTQ [D3 peptide (SEQ ID NO:2)] it is “binds”; for AKSRKGNSSLM [SEQ ID NO 21] it is “binds”.
For AKRSVQKLDGQ [SEQ ID NO 11], the binding result is reported as “binds”.
On the same count and under the same terms, the entry for AKRNGPLINRI [SEQ ID NO 10] is “binds”; for AKKKEQKQRNA [SEQ ID NO 20] it is “binds”.
For the molecule APKLDRMLTKK [SEQ ID NO 16], the binding result is “binds”.
As to ASKKPKRNIKA [C3 peptide (SEQ ID NO:1)], the binding result is given as “binds”.
Same read-out and setting: the entry for AKYVLIPIRIS [SEQ ID NO 5] is “binds”.
Consider AYYLIVRVNRI [SEQ ID NO 8], for which the binding result is on record as “binds”.
For ATNKKTGRRPR [SEQ ID NO 9], the binding result is given as “binds”.
On the same count and under the same terms, to ARKTRERKSKD [SEQ ID NO 14] belongs “binds”; to ASTKRSMQGI [SEQ ID NO 6], “binds”.
As for ARALNWGAKPK [D4 peptide (SEQ ID NO:3)], the binding result is “binds”.
For the molecule AGDYNPDLDR [SEQ ID NO 13], the binding result is “binds”.
On to ARQKTMKPRRS [SEQ ID NO 12], for which the binding result is recorded as “binds”.
As to ARKSRDMTAIK [SEQ ID NO 22], the binding result is recorded as “binds”.
Turning to ASQAKRRKGPR [SEQ ID NO 15], the binding result is “binds”.
Same read-out and setting: the entry for AKKEKPNKPND [SEQ ID NO 17] is “binds”.

In the next data set the target is T1, recombinant NCAM Ig1 domain produced in …. In words: SPR (BIAlite), dendrimer peptide immobilised on CM5 chip, Ig1 in solution.
Conditions: not given
Here is the method: Real-time biomolecular interaction analysis was performed using a BIAlite instrument (Pharmacia Biosensor AB, Sweden). All experiments were performed at 25° C. using Hepes buffered saline (HBS: 10 mM Hepes pH 7.4, 150 mM NaCl, 3.4 mM EDTA, 0.005% v/v Surfactant P20 (Pharmacia Biosensor, Sweden) as running buffer. The flow rate was […]. Dendrimer peptides C3d, D3d and D4d (four peptide-monomers coupled to a backbone consisting of three lysines) were immobilised on a sensor chip CM5 (Pharmacia Biosensor AB, Sweden) using the following procedure: the chip was activated by […] 0.05 M N-hydroxysuccinimide, 0.2 M N-ethyl-N′-(dimethylaminopropyl)carbodiimide; peptides were immobilised using […] peptide solution in HBS at a concentration of 60 μg/ml; finally the chip was blocked by 35 μl 1 M ethanolamine hydrochloride pH 8.5. Binding of Ig1 to dendrimer peptides: […] of Ig1 or Ig1I at the indicated concentrations were applied. The chip was regenerated by two […] pulses of 5 mM NaOH. Two independent experiments were performed. The results confirmed that C3d, D3d and D4d bind to the NCAM Ig1 domain.
As to B5, the binding result is reported as “binds”.
Regarding B6, the binding result is listed as “binds”.
For the molecule B7, the binding result is “binds”.
